Numbered stars: 1 amine (or outer) side, 2 acyl side, 3 side chain; on linkers, the order of the positions; unused ones are H or OH. * marks the point of attachment. pNA = O=[N+]([O-])c1ccc(N*)cc1; Suc = O=C(CCC(=O)[*:2])[*:1]
Experiments:
[1] = target: Pro21717-CD, catalytic domain of the cold-active subtilisin-like serine protease Pro21717 from Pseudoalteromonas arctica PAMC 21717 (Pseudoalteromonas arctica PAMC 21717); assay: not stated; purified Pro21717-CD in solution, three days after refolding; method in S2 Fig, not shown
[2] = target: Pro21717-CD, catalytic domain of the cold-active subtilisin-like serine protease Pro21717 from Pseudoalteromonas arctica PAMC 21717 (Pseudoalteromonas arctica PAMC 21717)

| stoichiometry N [1] | relative proteolytic activity (%) on N-succinyl-AAPF-p-nitroanilide, 0.83 mM, 30°C, 5 min (the best peptide substrate, set to 100) [2] [%] | Molecule |
| --- | --- | --- |
| 2 |  | Pro21717-CD, catalytic domain of the cold-active subtilisin-like serine protease Pro21717 from Pseudoalteromonas arctica PAMC 21717 (domain or fragment) |
|  | 100 | Suc-AAPF-pNA [N-succinyl-Ala-Ala-Pro-Phe-p-nitroanilide] |

Source: paper PMC5821440
